We go through two molecules from article PMC6393308.

Data set [1] concerns the target T1, HpSoj K199E (Helicobacter pylori 26695, UniProt O25759 1-264, K199E).
T1 sequence: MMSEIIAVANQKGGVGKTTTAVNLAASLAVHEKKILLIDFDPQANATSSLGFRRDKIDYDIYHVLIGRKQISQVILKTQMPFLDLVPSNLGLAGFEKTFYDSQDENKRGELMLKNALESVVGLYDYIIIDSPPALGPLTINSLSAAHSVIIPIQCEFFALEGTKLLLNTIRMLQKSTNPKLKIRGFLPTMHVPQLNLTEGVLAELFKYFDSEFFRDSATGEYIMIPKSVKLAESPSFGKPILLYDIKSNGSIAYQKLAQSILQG
The data set is described as follows: fluorescence polarization.

For data set [2], the target named is T2, HpSoj K230E (Helicobacter pylori 26695, UniProt O25759 1-264, K230E).
T2 sequence: T1 sequence with E199K, K230E
The data set is described as follows: fluorescence polarization.

In data set [3] the target is T3, HpSoj (Helicobacter pylori 26695, UniProt O25759 1-264).
T3 sequence: T1 sequence with E199K
The data set is described as follows: fluorescence polarization.

For data set [4], the target named is T4, HpSoj K199/230E (Helicobacter pylori 26695, UniProt O25759 1-264, K199E;K230E).
T4 sequence: T1 sequence with K230E
The data set is described as follows: fluorescence polarization.

In data set [5] the target is T5, HpSoj K199/227/230/247E (Helicobacter pylori 26695, UniProt O25759 1-264, K199E;K227E;K230E;K247E).
T5 sequence: T1 sequence with K227E, K230E, K247E
The data set is described as follows: fluorescence polarization.

Data set [6] deals with T3, HpSoj. The data set is described as follows: EMSA.

Residue numbers refer to the chain shown, from its start.

B1: parS24 Cy3 (dsDNA)
DNA 1: AGGGTGTTCCACGTGAAACAGGGA
DNA 2: TCCCTGTTTCACGTGGAACACCCT
With B1, the Kd came to 215 ± 24 nM in data set [1], 187 ± 36 nM in data set [2], 122 ± 14 nM in data set [3] and 308 ± 40 nM in data set [4]. In addition, in data set [5], the binding result was “no binding”.

B2: parS55 (dsDNA)
DNA 1: CTGAATCAGCAGTTGAATCAGAATGTTCCACGTGAAACAAAGAAAAAAGAACCTG
DNA 2: CAGGTTCTTTTTTCTTTGTTTCACGTGGAACATTCTGATTCAACTGCTGATTCAG
Take B2: the binding result in data set [6] was “binds”.
